The data set “SEC” deals with the molecule itself. The data set is described as follows: SEC.
The data set “crystal structure” deals with the molecule itself. Put plainly: crystal structure.

The text below walks through data of article PMC4169324 (The FEBS journal, 2014).

B1: BcRsaM protein (product of bcam1869) from B. cenocepacia J2315, native (natural protein)
chain: SNAMTSPLLHPVPGPSPDGYVRLSEGALAALVLDHVASGLDPSLLAELRDNAIDARLAGYTEWHRTAGAGVAYVTVGWDWYLERATGTFVIAGGDVRSNVMAIDAKGADIGMLRTAAALAARLAALDWPAAVASALLGHNDAYHAGPTLQ
With B1, the stoichiometry N (as a rule, a count of units in the complex or per binding partner) in “SEC” turned out to be 2.

B2: SeMet-labeled BcRsaM protein from B. cenocepacia J2315 (natural protein)
chain: B1 chain
modifications: selenomethionine (SeMet-labeled; 70 mg/L SeMet in the culture for crystals X4)
On to B2, for which, in the data set “crystal structure”, the binding result is given as “binds”.
